Numbering of substitutions follows the chain as printed. Like-named read-outs stand apart in the source and are kept apart here.
How the values were obtained:
Experiment in all cases: cell-based or functional assay
human GLP-1 receptor [1] = biological target: T1, human GLP-1 receptor (human, UniProt P43220 24-463)
human GIP receptor [2] = biological target: T2, human GIP receptor (human, UniProt P48546 22-466)
T2 sequence (looked up): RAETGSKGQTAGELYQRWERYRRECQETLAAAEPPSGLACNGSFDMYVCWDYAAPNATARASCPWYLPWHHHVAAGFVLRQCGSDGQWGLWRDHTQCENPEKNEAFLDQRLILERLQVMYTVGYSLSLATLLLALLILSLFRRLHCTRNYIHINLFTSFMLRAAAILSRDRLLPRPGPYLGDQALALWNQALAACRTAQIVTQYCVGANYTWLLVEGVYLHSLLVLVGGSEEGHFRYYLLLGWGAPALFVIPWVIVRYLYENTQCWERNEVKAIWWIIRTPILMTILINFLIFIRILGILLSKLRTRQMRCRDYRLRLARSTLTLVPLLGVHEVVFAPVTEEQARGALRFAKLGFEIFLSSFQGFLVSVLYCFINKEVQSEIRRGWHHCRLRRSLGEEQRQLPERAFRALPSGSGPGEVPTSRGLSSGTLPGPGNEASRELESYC

human glucagon receptor [3] = biological target: T3, human glucagon receptor (human, UniProt P47871 26-477)
human GLP-1 receptor [4] = biological target: T1, human GLP-1 receptor; remark: listed apart in the source
human GIP receptor [5] = biological target: T2, human GIP receptor; remark: listed apart in the source
human glucagon receptor [6] = biological target: T3, human glucagon receptor; remark: listed apart in the source

T3 sequence (P47871 26-477): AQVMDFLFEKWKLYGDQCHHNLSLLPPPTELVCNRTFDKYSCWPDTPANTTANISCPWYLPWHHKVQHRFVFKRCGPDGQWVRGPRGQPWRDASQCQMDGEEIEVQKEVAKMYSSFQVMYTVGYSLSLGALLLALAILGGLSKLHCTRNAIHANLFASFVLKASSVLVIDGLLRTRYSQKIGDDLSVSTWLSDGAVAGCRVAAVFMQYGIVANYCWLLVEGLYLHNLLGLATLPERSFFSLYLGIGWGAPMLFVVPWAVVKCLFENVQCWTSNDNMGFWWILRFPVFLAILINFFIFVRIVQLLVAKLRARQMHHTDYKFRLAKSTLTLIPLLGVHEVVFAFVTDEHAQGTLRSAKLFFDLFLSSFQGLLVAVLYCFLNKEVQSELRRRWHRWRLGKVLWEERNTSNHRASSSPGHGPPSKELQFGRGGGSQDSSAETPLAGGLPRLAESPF

B1: SEQ ID NO: 18 (peptide)
peptide: HXQGTFTSDLSKQKDEEAARLFIEWLXSTGPSSGAPPPS
modifications: D-Ser at 2; Lys 14 side chain K(γE-γE-x53) = (S)-4-Carboxy-4-((S)-4-carboxy-4-hexadecanoylamino-butyrylamino)-butyryl-; Aib at 27; C-terminal amide
EC50 hGLP-1R (human GLP-1 receptor [1]): 3.6 pM | EC50 hGIP-R (human GIP receptor [2]): 27500 pM | EC50 hGlucagon-R (human glucagon receptor [3]): 10.3 pM

B2: SEQ ID NO: 29 (peptide)
peptide: B1 peptide with Q3H, X27K, S28A, T29G
modifications: D-Ser at 2; Lys 14 side chain K(γE-γE-x53) = (S)-4-Carboxy-4-((S)-4-carboxy-4-hexadecanoylamino-butyrylamino)-butyryl-; C-terminal amide
EC50 hGLP-1R (human GLP-1 receptor [4]): 0.9 pM | EC50 hGIP-1 (human GIP receptor [5]): 112 pM | EC50 hGlucagon-R (human glucagon receptor [6]): 2.6 pM

B3: SEQ ID NO: 21 (peptide)
peptide: B1 peptide with S28A, T29G
modifications: D-Ser at 2; Lys 14 side chain K(AEEAc-AEEAc- E-x70) = (2-{2-[2-(2-{2-[(4S)-4-Carboxy-4-octadecanoylamino-butyrylamino]-ethoxy}-ethoxy)-acetylamino]-ethoxy}-ethoxy)-acetyl; Aib at 27; C-terminal amide
EC50 hGLP-1R (human GLP-1 receptor [1]): 1 pM | EC50 hGIP-R (human GIP receptor [2]): 2450 pM | EC50 hGlucagon-R (human glucagon receptor [3]): 9.1 pM

B4: SEQ ID NO: 25 (peptide)
peptide: B1 peptide with S28K, T29X
modifications: D-Ser at 2; Lys 14 side chain K(γE-x70) = (S)-4-Carboxy-4-octadecanoylamino-butyryl-; Aib at 27; D-Ala at 29; C-terminal amide
EC50 hGLP-1R (human GLP-1 receptor [1]): 2.1 pM | EC50 hGIP-R (human GIP receptor [2]): 8320 pM | EC50 hGlucagon-R (human glucagon receptor [3]): 43.2 pM

B5: SEQ ID NO: 20 (peptide)
peptide: B1 peptide with S28A, T29G
modifications: D-Ser at 2; Lys 14 side chain K(AEEAc-AEEAc- E-x53) = (2-{2-[2-(2-{2-[(4S)-4-Carboxy-4-hexadecanoylamino-butyrylamino]-ethoxy}-ethoxy)-acetylamino]-ethoxy}-ethoxy)-acetyl; Aib at 27; C-terminal amide
EC50 hGLP-1R (human GLP-1 receptor [1]): 4.3 pM | EC50 hGIP-R (human GIP receptor [2]): 20200 pM | EC50 hGlucagon-R (human glucagon receptor [3]): 88.4 pM

B6: SEQ ID NO: 15 (peptide)
peptide: B1 peptide with T29G
modifications: D-Ser at 2; Lys 14 side chain K(γE-γE-x53) = (S)-4-Carboxy-4-((S)-4-carboxy-4-hexadecanoylamino-butyrylamino)-butyryl-; Aib at 27; C-terminal amide
EC50 hGLP-1R (human GLP-1 receptor [1]): 1.8 pM | EC50 hGIP-R (human GIP receptor [2]): 5500 pM | EC50 hGlucagon-R (human glucagon receptor [3]): 12.3 pM

B7: SEQ ID NO: 30 (peptide)
peptide: HXHGTFTSDLSKQKEEEAARLFIEWLKAGGPSSGAPPPS
modifications: D-Ser at 2; Lys 14 side chain K(γE-γE-x53) = (S)-4-Carboxy-4-((S)-4-carboxy-4-hexadecanoylamino-butyrylamino)-butyryl-; C-terminal amide
EC50 hGLP-1R (human GLP-1 receptor [4]): 0.8 pM | EC50 hGIP-1 (human GIP receptor [5]): 77.8 pM | EC50 hGlucagon-R (human glucagon receptor [6]): 5.1 pM

B8: SEQ ID NO: 22 (peptide)
peptide: B1 peptide with S28A, T29G
modifications: D-Ser at 2; Lys 14 side chain K(AEEAc-AEEAc-AEEAc-x70) = [2-(2-{2-[2-(2-{2-[2-(2-Octadecanoylamino-ethoxy)-ethoxy]-acetylamino}-ethoxy)-ethoxy]-acetylamino}-ethoxy)-ethoxy]-acetyl-; Aib at 27; C-terminal amide
EC50 hGLP-1R (human GLP-1 receptor [1]): 1.8 pM | EC50 hGIP-R (human GIP receptor [2]): 4160 pM | EC50 hGlucagon-R (human glucagon receptor [3]): 6.4 pM

B9: SEQ ID NO: 19 (peptide)
peptide: B1 peptide with S28K, T29G
modifications: D-Ser at 2; Lys 14 side chain K(γE-γE-x53) = (S)-4-Carboxy-4-((S)-4-carboxy-4-hexadecanoylamino-butyrylamino)-butyryl-; Aib at 27; C-terminal amide
EC50 hGLP-1R (human GLP-1 receptor [1]): 2 pM

Source: patent US20150322128A1 (Sanofi, published 2015)
